From article PMC12182893

Target: Pseudotyped lentivirus displaying Omicron BA.5 S protein (PV) (SARS-CoV-2 Omicron BA.5) (UniProt P0DTC2)
Test: dot blot (filter binding)

Row | Sequence | Kd [pM]
1 | TTACGTCAAGGTGTCACTCCTGTGGGTGGAATGGGGAAGGGAGTGTTTTTTTTTGTGAGATGTGTGGTGTGGAATGGGGAAGCATCTCTTTGGCGTG [DRDA8] | 0.0028
2 | TTACGTCAAGGTGTCACTCCTGTGGGTGGAATGGGGAAGGGAGTGTTTTTTTTTTCGGAGATGTGTGTGTGAAACAGTGGGAAGCATCTCTTTGGCGTG [DRDA10] | 0.0043
